The target in the data set is VAMP2, native protein in rat brain detergent extracts (BDE) (UniProt P63045).
UniProt P63045, sequence (P63045 whole entry, looked up): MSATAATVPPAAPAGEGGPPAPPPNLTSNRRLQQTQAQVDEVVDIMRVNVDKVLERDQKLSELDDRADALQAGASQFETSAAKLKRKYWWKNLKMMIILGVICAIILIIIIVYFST

“LC of BoNT/B (B-LC), residues 1-439, His6-tagged”: the “cleavage of SNARE proteins in rat brain detergent extracts (immunoblot)” value is recorded as “abolishes the immunoblot signal of VAMP2”.
